# Patent US20150104808A1 (Janssen / Centocor, published 2015)
# Numbering of substitutions follows the chain as printed.
# B1: ECB38 (designed binder)
# chain: MLPAPKNLVVSEVTEDSARLSWDDPWAFYESFLIQYQESEKVGEAIVLTVPGSERSYDLTGLKPGTEYTVSIYGVHNVYKDTNMRGLPLSAIFTTAPAPAPAPAPLPAPKNLVVSRVTEDSARLSWTAPDAAFDSFWIRYFEFLGSGEAIVLTVPGSERSYDLTGLKPGTEYVVNIMGVKGGKISPPLSAIFTTAPAPAPAPAPLAEAKVLANRELDKYGVSDYYKNLINNAKTVEGVKALLDEILAALP
# B2: ECB147v3-PEG24 (designed binder)
# chain: LPAPKNLVVSEVTEDSARLSWDDPWAFYESFLIQYQESEKVGEAIVLTVPGSERSYDLTGLCPGTEYTVSIYGVHNVYKDTNMRGLPLSAIFTTAPCPAPAPAPLPAPKNLVVSRVTEDSARLSWTAPDAAFDSFWIRYFEFLGSGEAIVLTVPGSERSYDLTGLCPGTEYVVNIMSVKGGSISPPLSAIFTTAPCPAPAPAPLAEAKVLANRELDKYGVSDYYKNLINNAKTVEGVKALLDEILAALP
# modifications: PEG24-maleimide on the engineered cysteines
# B3: ECB147v5-PEG24 (designed binder)
# chain: B2 chain with C97A, C196A
# modifications: PEG24-maleimide on the engineered cysteines
# B4: ECB147v7-PEG24 (designed binder)
# chain: B2 chain with C62K, C166K
# modifications: PEG24-maleimide on the engineered cysteines
# B5: ECB147v6-PEG24 (designed binder)
# chain: B2 chain with C97A, C166K, C196A
# modifications: PEG24-maleimide on the engineered cysteine
# B6: P54CR4-31 (designed binder, not shown: small tags and cut ends)
# chain: LPAPKNLVVSEVTEDSLRLSWTAPDAAFDSFLIQYQESEKVGEAINLTVPGSERSYDLTGLKPGTEYTVSIYGVLGSYVFEHDVMLPLSAEFTT
# B7: P114AR7P93-G8 (designed binder, not shown: small tags and cut ends)
# chain: LPAPKNLVVSRVTEDSARLSWTAPDAAFDSFWIRYFEFLGSGEAIVLTVPGSERSYDLTDLKPGTEYGVTINGVKGGRVSTPLSAIFTT
# B8: P114AR5P74-A5 (designed binder, not shown: small tags and cut ends)
# chain: LPAPKNLVVSRVTEDSARLSWTAPDAAFDSFWIRYDEVVVGGEAIVLTVPGSERSYDLTGLKPGTEYYVNILGVKGGSISVPLSAIFTT
# B9: P114AR7P94-E5 (designed binder, not shown: small tags and cut ends)
# chain: B7 chain with D60G, G68A, T70N, N72M, T81V
# B10: P114AR7P95-F10 (designed binder, not shown: small tags and cut ends)
# chain: B8 chain with D36F, V38F, V39T, V40T, G41A, Y68V, L72M, V81P
# B11: P114AR7P92-F6 (designed binder, not shown: small tags and cut ends)
# chain: B7 chain with D60G, G68V, T70N, N72L, R78G, V79L, T81V
# B12: P114AR7P93-H9 (designed binder, not shown: small tags and cut ends)
# chain: B7 chain with D60G, G68V, T70Q, N72I, R78H, V79I, T81L
# B13: P114AR7P94-A3 (designed binder, not shown: small tags and cut ends)
# chain: B7 chain with D60G, G68V, T70N, N72M, R78K, V79I, T81P
# B14: P114AR5P75-E9 (designed binder, not shown: small tags and cut ends)
# chain: B7 chain with W32F, F36D, G40R, D60G, G68W, N72L, R78L
# B15: P114AR7P92-G8 (designed binder, not shown: small tags and cut ends)
# chain: B7 chain with W32V, D60G, G68V, T70Q, N72L, R78Y, V79I, T81I
# Biological target: T1, EGFR (epidermal growth factor receptor) on cells (human, UniProt P00533 25-1210)
# Assay: cell-based or functional assay
row,"IC50, inhibition of EGF-stimulated EGFR phosphorylation (Tyr1173) in NCI-H292",Binder
1,2.3 nM,B1
2,1.6 nM,B2
3,0.9 nM,B3
4,1.4 nM,B4
5,1.4 nM,B5

# Biological target: c-Met (hepatocyte growth factor receptor) on cells (human, UniProt P08581 25-1390)
# Assay: cell-based or functional assay
row,"IC50, inhibition of HGF-stimulated c-Met phosphorylation (Tyr1349) in NCI-H292",Binder
1,1.3 nM,B1
2,0.5 nM,B2
3,0.4 nM,B3
4,0.5 nM,B4
5,0.4 nM,B5

# Biological target: T1, EGFR (epidermal growth factor receptor) …
# Assay: A431 cell binding, anti-His-Alexa488 fluorescence
# Procedure: A431 cells were plated at 5,000/well in opaque black 96-well plates and allowed to attach overnight at 37° C., in a humidified 5% CO₂ atmosphere. […] Supernatant was removed and cells were washed 3 times with 150 μL/well of FACS stain buffer. Cells were incubated with 50 μL/well of anti-penta His-Alexa488 antibody conjugate (Qiagen) diluted 1:100 in FACS stain buffer for 20 minutes at room temperature. Cells were washed 3 times with 150 μL/well of FACS stain buffer, after which wells were filled with 100 μL of FACS stain buffer and read for fluorescence at 488 nm using an Acumen eX3 reader. Data were plotted as raw fluorescence signal against the logarithm of the FN3 domain molar concentration and fitted to a sigmoidal dose-response curve with variable slope using GraphPad Prism 4 (GraphPad Software) to calculate EC₅₀ values.
row,EC50,Binder
1,> 20000 nM,B6

# Biological target: Recombinant human c-Met Fc chimera (human) (UniProt P08581)
# Assay: HGF competition on coated c-Met Fc chimera, competitor biotinylated HGF
row,IC50,Binder
1,1 nM,B7
2,5.2 nM,B8
3,0.7 nM,B9
4,1.4 nM,B10
5,2.2 nM,B11
6,2.9 nM,B12
7,0.2 nM,B13
8,51.9 nM,B14
9,1.6 nM,B15
